{"source": "patent US20230097015A1", "about": "(SEOUL NATIONAL UNIVERSITY R AND DB FOUNDATION, published 2023)", "proteins": {"B1": {"name": "4CL-TycA COM^D (protein)", "chain": "MAPQEQAVSQVMEKQSNNNNSDVIFRSKLPDIYIPNHLSLHDYIFQNISEFATKPCLINGPTGHVYTYSDVHVISRQIAANFHKLGVNQNDVVMLLLPNCPEFVLSFLAASFRGATATAANPFFTPAEIAKQAKASNTKLIITEARYVDKIKPLQNDDGVVIVCIDDNESVPIPEGCLRFTELTQSTTEASEVIDSVEISPDDVVALPYSSGTTGLPKGVMLTHKGLVTSVAQQVDGENPNLYFHSDDVILCVLPMFHIYALNSIMLCGLRVGAAILIMPKFEINLLLELIQRCKVTVAPMVPPIVLAIAKSSETEKYDLSSIRVVKSGAAPLGKELEDAVNAKFPNAKLGQGYGMTEAGPVLAMSLGFAKEPFPVKSGACGTVVRNAEMKIVDPDTGDSLSRNQPGEICIRGHQIMKGYLNNPAATAETIDKDGWLHTGDIGLIDDDDELFIVDRLKELIKYKGFQVAPAELEALLIGHPDITDVAVVAMKEEAAGEVPVAFVVKSKDSELSEDDVKQFVSKQVVFYKRINKVFFTESIPKAPSGKILRKDLRAKLANGLGGGGSGGGGSERTPSDFSVKGLQMEEMDDIFELLANTLR"}, "B2": {"name": "4CL-MlnD COM^D (protein)", "chain": "MAPQEQAVSQVMEKQSNNNNSDVIFRSKLPDIYIPNHLSLHDYIFQNISEFATKPCLINGPTGHVYTYSDVHVISRQIAANFHKLGVNQNDVVMLLLPNCPEFVLSFLAASFRGATATAANPFFTPAEIAKQAKASNTKLIITEARYVDKIKPLQNDDGVVIVCIDDNESVPIPEGCLRFTELTQSTTEASEVIDSVEISPDDVVALPYSSGTTGLPKGVMLTHKGLVTSVAQQVDGENPNLYFHSDDVILCVLPMFHIYALNSIMLCGLRVGAAILIMPKFEINLLLELIQRCKVTVAPMVPPIVLAIAKSSETEKYDLSSIRVVKSGAAPLGKELEDAVNAKFPNAKLGQGYGMTEAGPVLAMSLGFAKEPFPVKSGACGTVVRNAEMKIVDPDTGDSLSRNQPGEICIRGHQIMKGYLNNPAATAETIDKDGWLHTGDIGLIDDDDELFIVDRLKELIKYKGFQVAPAELEALLIGHPDITDVAVVAMKEEAAGEVPVAFVVKSKDSELSEDDVKQFVSKQVVFYKRINKVFFTESIPKAPSGKILRKDLRAKLANGLGGGGSGGGGSDTADGEIMSLLEKAQTGEMNTKETSELIEELLFHE"}, "B3": {"name": "4CL-TycB COM^D (protein)", "chain": "MAPQEQAVSQVMEKQSNNNNSDVIFRSKLPDIYIPNHLSLHDYIFQNISEFATKPCLINGPTGHVYTYSDVHVISRQIAANFHKLGVNQNDVVMLLLPNCPEFVLSFLAASFRGATATAANPFFTPAEIAKQAKASNTKLIITEARYVDKIKPLQNDDGVVIVCIDDNESVPIPEGCLRFTELTQSTTEASEVIDSVEISPDDVVALPYSSGTTGLPKGVMLTHKGLVTSVAQQVDGENPNLYFHSDDVILCVLPMFHIYALNSIMLCGLRVGAAILIMPKFEINLLLELIQRCKVTVAPMVPPIVLAIAKSSETEKYDLSSIRVVKSGAAPLGKELEDAVNAKFPNAKLGQGYGMTEAGPVLAMSLGFAKEPFPVKSGACGTVVRNAEMKIVDPDTGDSLSRNQPGEICIRGHQIMKGYLNNPAATAETIDKDGWLHTGDIGLIDDDDELFIVDRLKELIKYKGFQVAPAELEALLIGHPDITDVAVVAMKEEAAGEVPVAFVVKSKDSELSEDDVKQFVSKQVVFYKRINKVFFTESIPKAPSGKILRKDLRAKLANGLGGGGSGGGGSEYTPSDLGDEELSMEELENILEWI"}, "B4": {"name": "4CL-MlnB COM^D (protein)", "chain": "MAPQEQAVSQVMEKQSNNNNSDVIFRSKLPDIYIPNHLSLHDYIFQNISEFATKPCLINGPTGHVYTYSDVHVISRQIAANFHKLGVNQNDVVMLLLPNCPEFVLSFLAASFRGATATAANPFFTPAEIAKQAKASNTKLIITEARYVDKIKPLQNDDGVVIVCIDDNESVPIPEGCLRFTELTQSTTEASEVIDSVEISPDDVVALPYSSGTTGLPKGVMLTHKGLVTSVAQQVDGENPNLYFHSDDVILCVLPMFHIYALNSIMLCGLRVGAAILIMPKFEINLLLELIQRCKVTVAPMVPPIVLAIAKSSETEKYDLSSIRVVKSGAAPLGKELEDAVNAKFPNAKLGQGYGMTEAGPVLAMSLGFAKEPFPVKSGACGTVVRNAEMKIVDPDTGDSLSRNQPGEICIRGHQIMKGYLNNPAATAETIDKDGWLHTGDIGLIDDDDELFIVDRLKELIKYKGFQVAPAELEALLIGHPDITDVAVVAMKEEAAGEVPVAFVVKSKDSELSEDDVKQFVSKQVVFYKRINKVFFTESIPKAPSGKILRKDLRAKLANGLGGGGSGGGGSKNEDQEILFLLEQLKNGELSADQVYQLLEGK"}, "B5": {"name": "4CL-Kj12B COM^D (protein)", "chain": "MAPQEQAVSQVMEKQSNNNNSDVIFRSKLPDIYIPNHLSLHDYIFQNISEFATKPCLINGPTGHVYTYSDVHVISRQIAANFHKLGVNQNDVVMLLLPNCPEFVLSFLAASFRGATATAANPFFTPAEIAKQAKASNTKLIITEARYVDKIKPLQNDDGVVIVCIDDNESVPIPEGCLRFTELTQSTTEASEVIDSVEISPDDVVALPYSSGTTGLPKGVMLTHKGLVTSVAQQVDGENPNLYFHSDDVILCVLPMFHIYALNSIMLCGLRVGAAILIMPKFEINLLLELIQRCKVTVAPMVPPIVLAIAKSSETEKYDLSSIRVVKSGAAPLGKELEDAVNAKFPNAKLGQGYGMTEAGPVLAMSLGFAKEPFPVKSGACGTVVRNAEMKIVDPDTGDSLSRNQPGEICIRGHQIMKGYLNNPAATAETIDKDGWLHTGDIGLIDDDDELFIVDRLKELIKYKGFQVAPAELEALLIGHPDITDVAVVAMKEEAAGEVPVAFVVKSKDSELSEDDVKQFVSKQVVFYKRINKVFFTESIPKAPSGKILRKDLRAKLANGLGGGGSGGGGSLLKEKRKHFQAEQNSSQEYLRGEI"}}, "key": {"[1]": {"target": "T1, TycB COM^A-CHS", "T1 chain": "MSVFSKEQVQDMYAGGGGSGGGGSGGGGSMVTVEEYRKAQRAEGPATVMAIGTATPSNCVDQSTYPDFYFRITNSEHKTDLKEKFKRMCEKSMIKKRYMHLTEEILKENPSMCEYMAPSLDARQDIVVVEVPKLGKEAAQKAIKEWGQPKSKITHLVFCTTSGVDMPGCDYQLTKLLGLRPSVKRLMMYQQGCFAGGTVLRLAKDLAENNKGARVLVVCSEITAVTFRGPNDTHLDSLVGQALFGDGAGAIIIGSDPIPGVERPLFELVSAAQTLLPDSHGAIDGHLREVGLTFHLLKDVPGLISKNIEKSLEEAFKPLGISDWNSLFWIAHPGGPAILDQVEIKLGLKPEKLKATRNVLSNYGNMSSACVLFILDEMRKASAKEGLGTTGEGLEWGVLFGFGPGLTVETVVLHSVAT"}, "[2]": {"target": "T2, MlnE COM^A-CHS", "T2 chain": "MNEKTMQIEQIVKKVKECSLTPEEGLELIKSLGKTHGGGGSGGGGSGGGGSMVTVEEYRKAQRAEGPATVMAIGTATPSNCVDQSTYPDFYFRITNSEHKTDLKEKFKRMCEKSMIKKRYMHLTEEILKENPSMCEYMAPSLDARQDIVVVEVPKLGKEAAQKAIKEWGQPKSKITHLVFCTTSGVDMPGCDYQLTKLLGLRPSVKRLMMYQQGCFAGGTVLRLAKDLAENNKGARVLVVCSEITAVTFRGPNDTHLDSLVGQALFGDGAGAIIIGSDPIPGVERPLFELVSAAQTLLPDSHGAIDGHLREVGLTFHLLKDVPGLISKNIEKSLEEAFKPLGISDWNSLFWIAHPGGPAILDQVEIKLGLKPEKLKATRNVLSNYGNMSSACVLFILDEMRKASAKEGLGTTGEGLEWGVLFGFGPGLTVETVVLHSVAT"}, "[3]": {"target": "T3, TycC COM^A-CHS", "T3 chain": "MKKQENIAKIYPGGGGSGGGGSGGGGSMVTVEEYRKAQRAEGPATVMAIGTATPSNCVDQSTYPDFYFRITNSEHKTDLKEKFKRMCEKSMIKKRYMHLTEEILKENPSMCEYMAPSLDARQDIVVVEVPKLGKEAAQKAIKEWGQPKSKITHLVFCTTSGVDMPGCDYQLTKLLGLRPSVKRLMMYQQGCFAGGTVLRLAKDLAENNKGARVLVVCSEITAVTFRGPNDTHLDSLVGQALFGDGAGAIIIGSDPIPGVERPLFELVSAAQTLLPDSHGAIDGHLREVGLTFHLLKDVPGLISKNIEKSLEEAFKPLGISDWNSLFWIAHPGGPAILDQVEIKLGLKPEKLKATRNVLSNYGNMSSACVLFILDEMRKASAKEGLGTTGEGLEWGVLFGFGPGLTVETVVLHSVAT"}, "[4]": {"target": "T4, MlnC COM^A-CHS", "T4 chain": "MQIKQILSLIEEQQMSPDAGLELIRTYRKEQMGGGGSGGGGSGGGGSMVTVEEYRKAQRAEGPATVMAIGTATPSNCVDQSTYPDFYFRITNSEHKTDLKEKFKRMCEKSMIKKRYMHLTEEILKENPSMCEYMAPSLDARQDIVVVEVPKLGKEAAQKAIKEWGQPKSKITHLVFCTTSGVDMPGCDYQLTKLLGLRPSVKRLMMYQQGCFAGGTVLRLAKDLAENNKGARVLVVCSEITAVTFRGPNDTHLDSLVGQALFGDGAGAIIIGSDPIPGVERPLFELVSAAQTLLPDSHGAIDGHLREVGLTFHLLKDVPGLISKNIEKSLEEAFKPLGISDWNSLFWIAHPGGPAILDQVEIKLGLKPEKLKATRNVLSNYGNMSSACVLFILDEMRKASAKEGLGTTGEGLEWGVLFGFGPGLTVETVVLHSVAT"}, "[5]": {"target": "T5, Kj12C COM^A-CHS", "T5 chain": "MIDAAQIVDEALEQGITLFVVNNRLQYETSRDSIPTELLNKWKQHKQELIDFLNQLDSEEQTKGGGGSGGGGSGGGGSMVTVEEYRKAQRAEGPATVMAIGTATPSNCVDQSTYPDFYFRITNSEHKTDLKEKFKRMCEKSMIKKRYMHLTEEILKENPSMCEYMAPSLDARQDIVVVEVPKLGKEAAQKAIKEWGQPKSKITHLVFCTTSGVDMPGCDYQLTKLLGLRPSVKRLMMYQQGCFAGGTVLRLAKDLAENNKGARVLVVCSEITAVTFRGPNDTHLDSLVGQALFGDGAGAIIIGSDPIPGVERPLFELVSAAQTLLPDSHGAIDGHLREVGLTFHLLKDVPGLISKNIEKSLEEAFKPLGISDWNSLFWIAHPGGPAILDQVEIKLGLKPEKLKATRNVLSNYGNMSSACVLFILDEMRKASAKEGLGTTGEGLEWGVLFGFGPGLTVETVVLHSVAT"}}}
{"protein": "B1", "values": [{"measurement": "production of naringenin (UPLC-qTOF-HR-MS), two-step in vitro reaction", "setting": "[1]", "value": "the productivity by the metabolons with the remaining four pairs showed improvement"}]}
{"protein": "B2", "values": [{"measurement": "production of naringenin (UPLC-qTOF-HR-MS), two-step in vitro reaction", "setting": "[2]", "value": "the productivity by the metabolons with the remaining four pairs showed improvement"}]}
{"protein": "B3", "values": [{"measurement": "production of naringenin (UPLC-qTOF-HR-MS), two-step in vitro reaction", "setting": "[3]", "value": "the productivity by the metabolons with the remaining four pairs showed improvement"}]}
{"protein": "B4", "values": [{"measurement": "production of naringenin (UPLC-qTOF-HR-MS), two-step in vitro reaction", "setting": "[4]", "value": "the productivity by the metabolons with the remaining four pairs showed improvement"}, {"measurement": "production of naringenin (UPLC-qTOF-HR-MS), two-step in vitro reaction, against free enzymes", "setting": "[4]", "value": "improved by 2 fold or more compared to that by free enzymes (Free) after 20 minutes of the reaction"}]}
{"protein": "B5", "values": [{"measurement": "production of naringenin (UPLC-qTOF-HR-MS), two-step in vitro reaction", "setting": "[5]", "value": "productivity by 2-step metabolon_5, Kj12B-C was found similar to that by free enzymes (2-step_control: Free)"}]}
